Binding result and Kd data for 13 molecules are collected here from patent US20260226173A1 (Memorial Sloan Kettering, published 2026).

Numbering of substitutions follows the chain as printed.

Broadly, the Kd is the free concentration of one partner at which half of the binding sites on the other are occupied at equilibrium, for simple one-to-one binding. Higher therefore signals weaker binding.

To fix the notation:
B1: ESK2 clone 15 (Clone 15 anti-WTMC antibody moiety), phage clone (scFv, V domains shown)
VH: QVQLVQSGAEVKKPGASVKVSCKASGYTFTDFYIHWVRQAPGQGPEWMGWVNPKSGGTNYAQKFQGRVTMTRDTSISTAYMALSRLRSDDTAVYYCARSWQGMSWESVEDVWGQGTLVTVSS
VL: QSVLTQPPSVSGAPGQRVTISCTGSSSNIGAGYDVHWYQQLPGTAPKLLIYGNSNRPSGVPDRFSGSKSGTSASLAITGLQAEDEADYYCQSYDSSLSGAVFGTGTKVTVLG
notes: Human scFv on phage (E-ALPHA library); also called ESK2-15
B2: ESK2 clone 36 (Clone 36 anti-WTMC antibody moiety), phage clone (scFv, V domains shown)
VH: EVQLVQSGAEVKKPGESLRISCKDSGYSFTSYWISWVRQMPGKGLEWMGRIDPSDSYTNYSPSFQGHVTISADKSISTAYLQWSSLKASDTAMYYCARMEIYSPDYWGQGTLVTVSS
VL: DIQLTQSPSSLSASVGDRVTISCRASQSINKYLNWYQQKPGEAPKLLIYGALRLQSGVPSRFSGSGSGTDYALTITSLQPEDFATYYCQQSYSTPLTFGGGTKVDIKR
notes: Human scFv on phage (E-ALPHA library); also called ESK2-36
B3: ESK2 clone 12 (Clone 12 anti-WTMC antibody moiety), phage clone (scFv, V domains shown)
VH: EVQLVESGGGLVQPGGSLRLSCVVSGITVSNNYMTWVRQAPGKGLEWVSVIYSDGSTYYADSVRGRFTISRDISKNTVFLQMNSLRAEDTAMYYCASDKVAVAWTDGLDSWGQGTMVTVSS
VL: SSELTQDPTVSVALGQTVRITCQGDSLRSYYGGWYQQKPGQAPILVFHGQTNRPSGIPDRFSGSSSGNTVSLTITGAQAEDEADYYCSSRDSSGNHWVFGGGTKLTVLG
notes: Human scFv on phage (E-ALPHA library); also called ESK2-12
B4: ESK2 clone 26 (Clone 26 anti-WTMC antibody moiety), phage clone (scFv, V domains shown)
VH: QVQLVQSGGGLVQPGRSLRLSCAASGFTFDDYAMHWVRQAPGKGLEWVSGISWNSGSIGYADSVKGRFTISRDNAKNSLYLQMNSLRPEDTAVYYCARGYMGHNWYDWGQGTLVTVSS
VL: LPVLTQPPSVSVAPGKTARITCGGNDIGSKAVHWYQQKPGQAPVLVIYYNRDRPSGIPERFSGSNSGNTATLTISRVEAGDEADYYCQVWDSFSDHYVFGTGTKVTVLG
notes: Human scFv on phage (E-ALPHA library); also called ESK2-26
B5: ESK2 clone 32 (Clone 32 anti-WTMC antibody moiety), phage clone (scFv, V domains shown)
VH: QVQLVQSGAEVKKPGSSVKVSCKASGDTFSSYAVSWVRQAPGQGLEWMGAINLIFGTVKYAQKFQGRITITADESTSTAYMELSSLRSEDTAVYYCARGHWSQVWWTSHSYDLWGQGTLVTVSS
VL: B4 VL with L1Q, P2A, D26N, A31S, I47V, Y49D, N50D, R51S, F93S
notes: Human scFv on phage (E-ALPHA library); also called ESK2-32
B6: ESK2 clone 11 (Clone 11 anti-WTMC antibody moiety), phage clone (scFv, V domains shown)
VH: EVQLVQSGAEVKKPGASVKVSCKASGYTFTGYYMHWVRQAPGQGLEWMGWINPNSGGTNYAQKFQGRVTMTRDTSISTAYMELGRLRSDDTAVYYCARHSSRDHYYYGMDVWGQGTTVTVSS
VL: QSVVTQPPSVSAAPGQRVTISCSGGSSNIGNNYVSWYQHLPGTAPKLLIYENNLKRPSGIPDRFSGSKSGTSATLGITGLQTGDEADYYCGTWDSSLNAGVFGGGTKLTVLG
notes: Human scFv on phage (E-ALPHA library); also called ESK2-11
B7: ESK2 clone 1 (Clone 1 anti-WTMC antibody moiety), phage clone (scFv, V domains shown)
VH: EVQLVQSGAEVKKPGASVKVSCKASGYNFTSYGISWVRQAPGQGLEWMGWISAYNGNTNYAQKLQGRVTMTTDTSTSTAYMELRSLRSDDTAVYYCARDWDYDFLTGWDGMDVWGQGTTVTVSS
VL: QSVVTQPPSVSAAPGQKVTISCSGSSSNIGNNYVSWYQQLPGTAPKLLIYYNNKRPSGIPDRFSGSKSGTSATLGITGLQTGDEADYYCGTWDSSLSAGQVFGGGTKLTVLG
notes: Human scFv on phage (E-ALPHA library); also called ESK2-1
B8: ESK2 clone 17 (Clone 17 anti-WTMC antibody moiety), phage clone (scFv, V domains shown)
VH: EVQLVQSGAEVKKPGESLKISCKGSGYSFTSYWIGWVRQMPGKGLEWMGIIYPGDSDTRYSPSFQGQVTISADKSISTAYLQWSSLKASDTAVYYCARGGYIYYDAWGQGTLVTVSS
VL: SYVLTQPPSVSEAPRQRVTISCSGSRSNVGNNAVSWYQHLPGKAPKLLIYYDDLMPSGVSDRFSGSKSGTSASLAISGLQSEDEADYYCAAWDDSLNGLVFGGGTKLTVLG
notes: Human scFv on phage (E-ALPHA library); also called ESK2-17
B9: ESK2 clone 30 (Clone 30 anti-WTMC antibody moiety), phage clone (scFv, V domains shown)
VH: QVQLQESGGGLVQPGGSLRLSCAASGFTFSSYWMHWVRQAPGKGLVWVSRINSDGSSTSYADSVKGRFTISRDNAKNTLYLQMNSLRAEDTAVYYCARSGYYMSDIWGQGTLVTVSS
VL: NFMLTQPPSLSVAPGKTATITCGGNNIGSKSVHWYQQKPGQAPVLVISYDSDRPSGIPERFSGSKSGNTATLTISRVEAGDEADYYCQVWDSSSDQYVFGSGTKVTVLG
notes: Human scFv on phage (E-ALPHA library); also called ESK2-30
B10: ESK2 clone 10 (Clone 10 anti-WTMC antibody moiety), phage clone (scFv, V domains shown)
VH: EVQLVESGGGVVQPGGSLRLSCAASGFTFDDYAMHWVRQAPGKGLEWVSLISGDGGSTYYADSVKGRFTISRDNSKNSLYLQMNSLRTEDTALYYCAKDMVAAAGWNPYYYYYGMDVWGQGTTVTVSS
VL: NFMLTQPHSVSESPGKTVTISCTRSSGGIATNYVQWYQQRPGNAPTAVIYVDNERPSGVPERFSGSIDTSSNSASLTISGLETEDEADYYCQSYDSNNHVVFGGGTKVTVLG
notes: Human scFv on phage (E-ALPHA library); also called ESK2-10
B11: ESK2 clone 14 (Clone 14 anti-WTMC antibody moiety), phage clone (scFv, V domains shown)
VH: EVQLVQSGAEVKKPGASVKISCKTSGYTFTDYYLHWVRQAPVQGLEWMGYVDPYDGYTHYAQNFQGRVTMTTDTSTSTAYMELSSLRSEDTAVYYCARFSGTRQDSHWGQGTLVTVSS
VL: QSALTQPPSASGSPGQSVTISCTGTSSDVGGYNYVSWYQQHPGKAPKLMIYEVSKRPSGVPDRFSGSKSGNTASLTVSGLQAEDEADYYCSSYAGSNNLAVVFGGGTKLTVLG
notes: Human scFv on phage (E-ALPHA library); also called ESK2-14
B12: ESK2 clone #34 BiTE (bispecific antibody, V domains shown)
VH: QVQLVQSGTEVRKPGASLKVSCTTSGYIFTGYYIHWVRQVPGQGLEWMGWINPNSGVTEFAQGFQGRITMTRDTSTSTVYMELSRLTSDDTAVYYCAREGVWGYYDSWGQGTLVTVSS
VL: SSELTQDPAVSVALGQTVRITCQGDSLRSYYASWYQQKPGQAPVLVIYDKNNRPSGIPDRFSGSSSGNTASLTITGAQAEDEADYYCNSRDSSGNHHVVFGGGTKLTVLG
notes: made in CHO cells; also called ESK2-#34 BiTE
B13: ESK2 clone #18 BiTE (bispecific antibody, V domains shown)
VH: not shown
VL: QSVLTQPPSVSGAPGQRVSISCTGSSSNIGAGYVVHWYQHLPGTVPKLLIYDNSNRPSGVPDRFSGSNSGSSASLAVTGLQAEDEADYYCQSYDSSLSGWVFGGGTKLTVLG
notes: made in CHO cells; also called ESK2-#18 BiTE; ESK2-BiTE clone #18

One assay has as its target T1, HLA-A2 on T2 cells alone (not pulsed with peptide) (human).
T1 construct: TAP-deficient HLA-A2+ T2 cells with no peptide added; Also used as the HLA-A2 that pulsed peptides stabilise; also called T2 alone; T2 cells left unpulsed
Put plainly: flow cytometry, phage clones on T2 cells. For orientation: Flow cytometry measures light scatter and fluorescence of single cells or particles in a stream.
B1: the binding result is listed as “no binding”.

Turning to B2, the binding result is listed as “no binding”.

For B3, the binding result is “no binding”.

Consider B4, for which the binding result is “no binding”.

Consider B5, for which the binding result is on record as “no binding”.

Consider B6, for which the binding result is “no binding”.

As to B7, the binding result is listed as “no binding”.

As for B8, the binding result was “no binding”.

Take B9: the binding result was “no binding”.

On to B10, for which the binding result is “no binding”.

Consider B11, for which the binding result is reported as “no binding”.

For the next assay, the target named is T2, WT1 RMF (…)/HLA-A2 complex on cells (human).
T2 construct: On T2 cells pulsed with the peptide, on cells expressing the RMF minigene, or naturally presented on WT1+/HLA-A2+ tumour cells; also called RMF/HLA-A2; WT1 RMF/A2 complex
Put plainly: flow cytometry, phage clones on RMF-pulsed T2 cells.
B1: the binding result is recorded as “binds”.

For the molecule B2, the binding result is reported as “binds”.

For the molecule B3, the binding result is given as “binds”.

Turning to B4, the binding result is given as “binds”.

In the case of B5, the binding result is “binds”.

In the case of B7, the binding result is recorded as “binds”.

Turning to B8, the binding result is “binds”.

As for B9, the binding result was “binds”.

Turning to B10, the binding result was “binds”.

In a further assay the target is T3, TSTP1-10-mer (…)/HLA-A2 complex on T2 cells (human).
T3 construct: Potential off-target peptide pulsed onto T2 cells; also called Tyrosyl protein sulfotransferase 1 peptide
Put plainly: flow cytometry, T2 cells alone or pulsed with peptide, stained with BiTE at 1 µg/ml, MFI.
Take B12: the binding result is “no binding (tested: 1 µg/ml)”.

The next assay deals with T4, biotinylated WT1 RMF pMHC complex (human).
T4 construct: Soluble biotinylated complex loaded on the Biacore CAP chip; also called HLA-A2-WT1 RMF complex
Description: SPR (Biacore), biotinylated pMHC on CAP chip, BiTE as analyte 150 to 4.6875 nM, 1:1 binding model; clone #18 BiTE. (In general: Surface plasmon resonance follows binding to a sensor surface in real time, without labels.)
B13: the Kd worked out at 3 nM.

A further assay concerns the target T4, biotinylated WT1 RMF pMHC complex. Description: SPR (Biacore), biotinylated pMHC on CAP chip, BiTE as analyte 150 to 4.6875 nM, 1:1 binding model; clone #34 BiTE.
Turning to B12, binding was put at a Kd of 1.5 nM.
